From US20250270314A1 (TAVOTEK BIOTECH SUZHOU, published 2025)
Positions count from the first letter of the chain named.

T1: human CDH17 on AGS gastric cancer cells and AsPC-1 pancreatic cancer cells (human, UniProt Q12864 23-832)
T1 construct: Native CDH17 on the surface of cancer cell lines; also called CDH17 expressing AGS cells; CDH17 expressing AsPC-1 pancreatic cancer cells
T1 sequence: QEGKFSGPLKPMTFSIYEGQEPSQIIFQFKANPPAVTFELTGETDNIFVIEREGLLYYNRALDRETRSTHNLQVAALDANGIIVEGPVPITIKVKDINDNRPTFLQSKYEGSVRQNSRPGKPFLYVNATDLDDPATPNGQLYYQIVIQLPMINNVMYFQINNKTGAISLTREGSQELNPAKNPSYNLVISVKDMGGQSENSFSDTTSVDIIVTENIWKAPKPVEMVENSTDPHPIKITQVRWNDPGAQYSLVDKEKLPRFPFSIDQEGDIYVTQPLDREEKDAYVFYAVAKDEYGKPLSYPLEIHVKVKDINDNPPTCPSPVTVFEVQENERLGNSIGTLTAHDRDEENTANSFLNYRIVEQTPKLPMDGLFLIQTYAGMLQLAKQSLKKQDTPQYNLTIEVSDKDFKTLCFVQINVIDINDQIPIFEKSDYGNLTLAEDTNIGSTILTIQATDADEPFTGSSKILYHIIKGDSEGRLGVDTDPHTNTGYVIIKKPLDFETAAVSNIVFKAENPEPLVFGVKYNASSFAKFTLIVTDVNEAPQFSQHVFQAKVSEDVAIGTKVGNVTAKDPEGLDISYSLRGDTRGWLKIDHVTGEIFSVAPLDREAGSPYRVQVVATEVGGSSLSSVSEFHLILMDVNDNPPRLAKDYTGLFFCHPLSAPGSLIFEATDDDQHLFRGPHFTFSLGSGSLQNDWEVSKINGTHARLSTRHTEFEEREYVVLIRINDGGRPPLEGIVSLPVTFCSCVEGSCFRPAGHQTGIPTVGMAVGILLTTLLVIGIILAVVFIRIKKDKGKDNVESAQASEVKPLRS

T2: recombinant human CDH17 (R&D systems) (human, UniProt Q12864 23-787)
T2 construct: Bought recombinant protein coated on the ELISA plate; also called human Cadherin-17
T2 sequence: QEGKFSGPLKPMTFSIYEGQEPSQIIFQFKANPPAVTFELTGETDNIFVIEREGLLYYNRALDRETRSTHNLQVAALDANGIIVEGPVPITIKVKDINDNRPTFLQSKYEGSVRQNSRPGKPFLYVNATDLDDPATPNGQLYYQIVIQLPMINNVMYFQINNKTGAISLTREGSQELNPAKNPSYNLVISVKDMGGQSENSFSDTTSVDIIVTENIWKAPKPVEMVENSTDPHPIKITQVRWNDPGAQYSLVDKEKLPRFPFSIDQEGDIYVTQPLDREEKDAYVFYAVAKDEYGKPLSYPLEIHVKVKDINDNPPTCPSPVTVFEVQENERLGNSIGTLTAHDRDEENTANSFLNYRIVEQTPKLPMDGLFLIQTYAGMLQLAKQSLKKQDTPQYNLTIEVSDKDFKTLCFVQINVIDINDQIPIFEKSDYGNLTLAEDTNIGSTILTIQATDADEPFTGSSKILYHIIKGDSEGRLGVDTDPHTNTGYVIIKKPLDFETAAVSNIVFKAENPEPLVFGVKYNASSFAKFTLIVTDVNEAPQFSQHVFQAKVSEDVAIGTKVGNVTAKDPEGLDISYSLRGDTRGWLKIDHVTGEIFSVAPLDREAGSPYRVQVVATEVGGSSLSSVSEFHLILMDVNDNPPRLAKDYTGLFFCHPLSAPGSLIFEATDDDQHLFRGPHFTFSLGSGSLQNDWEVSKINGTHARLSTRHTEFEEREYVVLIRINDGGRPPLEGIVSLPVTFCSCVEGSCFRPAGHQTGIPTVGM

B1: VHO v357 (VHH)
VHH: EVQLLESGGGLVQPGGSLRLSCAASGFTFSDYWMSWVRQAPGKGLEWVSNISSSGSSTYYADSVKGRFTISRDNSKNTLYLQMNSLRAEDTAVYYCAKTSDWLSGKIDEHFDYWGQGTLVTVSS
notes: Variable-heavy-only (VHO) single domain; also called TS00357
B2: VHO v369 (VHH)
VHH: B1 VHH with S53G, D101Q, S104A, G105R, K106E, I107R, D108S, E109S, H110E
notes: Variable-heavy-only (VHO) single domain; also called TS00369
B3: VHO v370 (VHH)
VHH: EVQLLESGGGLVQPGGSLRLSCAASGFTFSNYWMSWVRQAPGKGLEWVSNISSDGGSTYYADSVKGRFTISRDNSKNTLYLQMNSLRAEDTAVYYCAKTTTWLTYRQGHGFDYWGQGTLVTVSS
notes: Variable-heavy-only (VHO) single domain; also called TS00370
B4: VHO v342 (VHH)
VHH: EVQLLESGGGLVQPGGSLRLSCAASGFTFSDYWMSWVRQAPGKGLEWVSNISQSGGSTYYADSVKGRFTISRDNSKNTLYLQMNSLRAEDTAVYYCAKDTPGPRWDFDYWGQGTLVTVSS
notes: Variable-heavy-only (VHO) single domain; also called TS00342
B5: VHO v341 (VHH)
VHH: B4 VHH with D31T, N50V, S52N, S54D, G56S, T100E, P101L, G102K, P103S, R104E
notes: Variable-heavy-only (VHO) single domain; also called TS00341
B6: VHO v346 (VHH)
VHH: B4 VHH with N50A, S52K, S54D, D99E, P101W, G102E, P103A, R104H
notes: Variable-heavy-only (VHO) single domain; also called TS00346
B7: VHO v365 (VHH)
VHH: B4 VHH with S52N, S54D, D99T, T100S, P101D, G102W, P103L, R104L, W105V, D106Q
notes: Variable-heavy-only (VHO) single domain; also called TS00365
B8: VHO v355 (VHH)
VHH: EVQLLESGGGLVQPGGSLRLSCAASGFTFSDYWMSWVRQAPGKGLEWVSAISGDGSSTYYADSVKGRFTISRDNSKNTLYLQMNSLRAEDTAVYYCAKETWGTYDFDYWGQGTLVTVSS
notes: Variable-heavy-only (VHO) single domain; also called TS00355
B9: VHO v343 (VHH)
VHH: B8 VHH with S52K, T100E, G102R, T103P, D105S
notes: Variable-heavy-only (VHO) single domain; also called TS00343
B10: VHO v345 (VHH)
VHH: B8 VHH with D31N, S52K, G53Q, T100E, G102R, T103D
notes: Variable-heavy-only (VHO) single domain; also called TS00345
B11: VHO v349 (VHH)
VHH: EVQLLESGGGLVQPGGSLRLSCAASGFTFSDYWMHWVRQAPGKGLEWVSAIWSSGGSTYYADSVKGRFTISRDNSKNTLYLQMNSLRAEDTAVYYCAKSPTLYDDFDYWGQGTLVTVSS
notes: Variable-heavy-only (VHO) single domain; also called TS00349
B12: VHO v352 (VHH)
VHH: B11 VHH with D31S, P100K, T101S, Y103H, D104E
notes: Variable-heavy-only (VHO) single domain; also called TS00352
B13: VHO v362 (VHH)
VHH: EVQLLESGGGLVQPGGSLRLSCAASGFTFSDYWMSWVRQAPGKGLEWVSNISSDGGSTYYADSVKGRFTISRDNSKNTLYLQMNSLRAEDTAVYYCAKTTTWLLSQHDKTSFDYWGQGTLVTVSS
notes: Variable-heavy-only (VHO) single domain; also called TS00362
B14: VHO v372 (VHH)
VHH: EVQLLESGGGLVQPGGSLRLSCAASGFTFSSYWMSWVRQAPGKGLEWVSGINYSGSSTYYADSVKGRFTISRDNSKNTLYLQMNSLRAEDTAVYYCAKWSWLGSDKADFDYWGQGTLVTVSS
notes: Variable-heavy-only (VHO) single domain; also called TS00372
B15: VHO v371 (VHH)
VHH: B14 VHH with S31N, Y53G, S56G, S100H, L102Y, S104Q, D105E, A107K, D108A
notes: Variable-heavy-only (VHO) single domain; also called TS00371
B16: VHO v374 (VHH)
VHH: EVQLLESGGGLVQPGGSLRLSCAASGFTFSTYWMSWVRQAPGKGLEWVSGINQDGSSTYYADSVKGRFTISRDNSKNTLYLQMNSLRAEDTAVYYCAKWHWAGSSQQFDYWGQGTLVTVSS
notes: VHO single domain; also called TS00374
B17: VHO v379 (VHH)
VHH: EVQLLESGGGLVQPGGSLRLSCAASGFTFSSYGMSWVRQAPGKGLEWVSNINQSGSSTYYADSVKGRFTISRDNSKNTLYLQMNSLRAEDTAVYYCAKHSHWAHRVLQSFDYWGQGTLVTVSS
notes: Variable-heavy-only (VHO) single domain; also called TS00379
B18: VHO v347 (VHH)
VHH: EVQLLESGGGLVQPGGSLRLSCAASGFTFSTYAMSWVRQAPGKGLEWVSNISGSGGSTYYADSVKGRFTISRDNSKNTLYLQMNSLRAEDTAVYYCAKEQQWVPGFGFDYWGQGTLVTVSS
notes: Variable-heavy-only (VHO) single domain; also called TS00347
B19: VHO v351 (VHH)
VHH: B18 VHH with T31S, G56S, Q100S, W102H, V103S, F106W
notes: Variable-heavy-only (VHO) single domain; also called TS00351
B20: VHO v377 (VHH)
VHH: EVQLLESGGGLVQPGGSLRLSCAASGFTFSDYWMSWVRQAPGKGLEWVSAISGDGSSTYYADSVKGRFTISRDNSKNTLYLQMNSLRAEDTAVYYCAKEDWRPGFDYWGQGTLVTVSS
notes: VHO single domain; also called TS00377
B21: VHO v376 (VHH)
VHH: EVQLLESGGGLVQPGGSLRLSCAASGFTFSDYWMSWVRQAPGKGLEWVSGINSSGGSTYYADSVKGRFTISRDNSKNTLYLQMNSLRAEDTAVYYCAKWQFVTQPGHKAFDYWGQGTLVTVSS
notes: Variable-heavy-only (VHO) single domain; also called TS00376
B22: VHO v380 (VHH)
VHH: B21 VHH with D31N, N52S, S53Q, G56S, V102A, T103S, Q104W, P105R, H107D, A109D
notes: Variable-heavy-only (VHO) single domain; also called TS00380
B23: CDH17 v1 (antibody, human IgG1, V domains shown)
VH: EVQLQQSVAELVKPGASVKMSCKVSGYTLTDHTIHWMKQRPEQGLEWIGYIYPRDGITGYNEKFKGKATLTADTSSSTAYMQLNSLTSEDSAVYFCARWGYSYRNYAYYYDYWGQGTTLTVSS
VL: DIVMSQSPSSLAVSVGEKVTMSCKSSQSLLHSSNQKNYLAWYQQKPGQSPKVLIYWASTRESGVPDRFTGSGSGTDFTLTITSVKSEDLAVYYCQQYYSYPWTFGGGTRLEIK
notes: described as human IgG1 monoclonal antibody; also called anti-CDH17 v1
B24: CDH17 v2 (antibody, human IgG1, V domains shown)
VH: QVQLVQSGAEVKKPGSSVKVSCKVSGYTFTDHTIHWMKQRPGQGLEWIGYIYPRDVITQYNEKFKGKVTLTADKSTSTAYMELSSLRSEDTAVYLCARWGYFYGSRSYYFDYWGQGTTVTVSS
VL: B23 VL
notes: described as human IgG1 monoclonal antibody; also called anti-CDH17 v2
B25: CDH17 v3 (antibody, V domains shown)
VH: QVQLQQSDAELVKPGASVKISCKVSGYTFTDHTIHWMKQRPEQGLEWIGYIYPRDVITQYNEKFKGKATLTADKSSSTAYMQLNSLTSEDSAVYLCARWGYFYGSRSYYFDYWGQGTTLTVSS
VL: B23 VL
notes: typical human IgG heavy and light chain bands on SDS-PAGE
B26: CDH17 v4 (antibody, V domains shown)
VH: B23 VH
VL: DIVMTQSQKFMSTTVGDRVNITCKASQNVGTAVAWYQQKPGQSPKLLIYSASNRYTGVPDRFTGSGSGTDFTLTITNMQSKDLADYFCQQYSSYPWTFGGGTKLEIK
notes: as for B25

biological target: T1, human CDH17 on AGS gastric cancer cells …; assay: flow cytometry on AGS and AsPC-1 cells

Binding result, binds:
B1, B2, B3, B4, B5, B6, B7, B8, B9, B10, B11, B12, B13, B14, B15, B16, B17, B18, B19, B20, B21, B22

biological target: T2, recombinant human CDH17 (R&D systems); assay: ELISA, plate coated with recombinant human CDH17
Description: ELISA-based binding assay was employed to evaluate the binding to CDH17 by anti-CDH17 antibodies. In this assay, 100 μL of […] recombinant human CDH17 (R&D systems) was coated on an ELISA plate. Increasing concentrations of masked and reference mAbs were applied on the plate and their binding to the recombinant human proteins were detected by HRP-conjugated anti-human secondary antibody. […] The expressed anti-CDH17 mAbs had potent binding to CDH17. The anti-CDH17 were tested for binding to AGS gastric cancer cells and AsPC-1 pancreatic cancer cells.

Binding result, binds:
B23, B24, B25, B26
